According to patent publication US20250135039A1, “INHIBITOR-RESISTANT MGMT MODIFICATIONS AND MODIFICATION OF MGMT-ENCODING NUCLEIC ACIDS” (Ensoma, Inc., priority 2022, published 2025):
Substitutions are numbered along the chain they refer to. Numbers in names are those of the source.

B1: M134V: MGMT polypeptide with mutation M134V (protein)
chain: MDKDCEMKRTTLDSPLGKLELSGCEQGLHEIKLLGKGTSAADAVEVPAPAAVLGGPEPLMQCTAWLNAYFHQPEAIEEFPVPALHHPVFQQESFTRQVLWKLLKVVKFGEVISYQQLAALAGNPKAARAVGGAVRGNPVPILIPCHRVVCSSGAVGNYSGGLAVKEWLLAHEGHRLGKPGLGGSSGLAGAWLKGAGATSGSPPAGRN
B2: N137F: MGMT polypeptide with mutation N137F (protein)
chain: B1 chain with V134M, N137F
B3: R135L: MGMT polypeptide with mutation R135L (protein)
chain: B1 chain with V134M, R135L
B4: M134W: MGMT polypeptide with mutation M134W (protein)
chain: B1 chain with V134W
B5: N137D: MGMT polypeptide with mutation N137D (protein)
chain: B1 chain with V134M, N137D
B6: R135T: MGMT polypeptide with mutation R135T (protein)
chain: B1 chain with V134M, R135T
B7: R135G: MGMT polypeptide with mutation R135G (protein)
chain: B1 chain with V134M, R135G
B8: M134Y: MGMT polypeptide with mutation M134Y (protein)
chain: B1 chain with V134Y
B9: N137P: MGMT polypeptide with mutation N137P (protein)
chain: B1 chain with V134M, N137P
B10: P138K: MGMT polypeptide with mutation P138K (protein)
chain: B1 chain with V134M, P138K
B11: P140F: MGMT polypeptide with mutation P140F (protein)
chain: B1 chain with V134M, P140F
B12: R135K: MGMT polypeptide with mutation R135K (protein)
chain: B1 chain with V134M, R135K

system: U251 human glioblastoma cell line; assay: in vitro FM-HCR assay of MGMT activity (mPlum O^6MeG reporter plasmid); assay type: cell-based; conditions: 100 μM O^6BG; U251 cells; flow cytometry 24 h after transfection; damaged/undamaged reporter; inversely related to MGMT activity
Text: The present Example includes, in part, an in vitro fluorescence multiplex host cell reactivation (FM-HCR) assay in which a reporter plasmid with O^6MeG-containing oligonucleotides is used. The oligonucleotides induce transcription errors that lead to expression of fluorescent mPlum protein. Functional MGMT will repair the O^6MeG sites and reduce mPlum expression. This represents a rapid and validated assay system to assess intracellular activity of MGMT. Further description of certain such assays is found in Nagel (2014 PNAS USA 111 (18): E1823-32, which is incorporated herein by reference.
The present Example uses an in vitro FM-HCR assay in which a reporter plasmid with 0° MeG-containing oligonucleotides is used to assay MGMT activity in cells. The O^6MeG-containing oligonucleotides induce transcription errors that lead to expression of fluorescent mPlum protein. Functional MGMT will repair the O'MeG sites and reduce mPlum expression. This represents a rapid and validated assay system to assess intracellular activity of MGMT. Further description of certain such assays is found in Nagel et al., 2014 PNAS USA 111 (18): E1823-32 and Piett et al., 2021 Nat. Protoc. 16 (9): 4265-4298, each of which is incorporated herein by reference.
The in vitro FM-HCR assay was performed using the U251 human glioblastoma cell line. The cells were cultured in DMEM with 10% FBS and passaged every three days.
To express MGMT variants in the cells, plasmids encoding each MGMT variant were designed and generated by either de novo synthesis or cloning into the pTwist EF1 Alpha Puro vector at the HindII-BamHI multiple cloning site. The pTwist EF1 Alpha Puro plasmid vector drives expression of the MGMT transcript from a human EF1-alpha promoter including intron 1 and an SV40 polyadenylation signal. Plasmids encoding the MGMT variants were purified using standard molecular biology techniques from E. coli with low endotoxins. Plasmids encoding wild-type MGMT or O^6BG-resistant MGMT^P140K were also designed and generated for use as controls.
To perform the in vitro FM-HCR assay, U251 cells were seeded in 12-well plates at a density of 50,000 cells per well in 1 mL culture media. The following day, the media was changed to 1 mL of culture media containing O^6BG (100 μM O^6BG and 0.1% DMSO final) or 0.1% DMSO; and the cells were transfected with 1,000 ng of a plasmid cocktail using Lipofectamine 3000 (ThermoFisher Scientific) at 1.8 μL Lipofectamine 3000 Reagent and 2 μL P3000 reagent in Opti-MEM medium (ThermoFisher Scientific). […] For the “undamaged” condition, the plasmid cocktail replaced the mPlum O^6MeG reporter plasmid with 100 ng of a plasmid expressing mPlum. The plasmid encoding BFP was used as an internal transfection control. For transfections where no MGMT encoding plasmid is used (no pMGMT), 250 ng of additional carrier plasmid was used to maintain a total DNA amount of 1,000 ng in each transfection. Four hours after transfection, the transfection medium was changed.
All transfected cells were analyzed by flow cytometry at 24-hours after transfection. Data was analyzed as previously described in Nagel et al., 2014 PNAS USA 111 (18): E1823-32 and Piett et al., 2021 Nat. Protoc. 16 (9): 4265-4298. For each condition, normalized reporter expression was determined by taking the product of the mPlum-positive cell count and the mean mPlum fluorescence intensity in mPlum-positive cells and dividing it by the product of the BFP-positive cell count and the mean BFP fluorescence intensity in BFP-positive cells. Next, for each MGMT variant, the percent reporter expression was determined by taking the normalized reporter expression in the “damaged” condition and dividing it by the normalized reporter expression in the “undamaged” condition, and then multiplying by 100 to obtain a percent value. […]

Row | Molecule | Reporter expression (%) mean, O^6BG [%]
1 | B1 | 66.0
2 | B2 | 104.3
3 | B3 | 82.5
4 | B4 | 112.3
5 | B5 | 80.7
6 | B6 | 101.7
7 | B7 | 106.0
8 | B8 | 106.3
9 | B9 | 93.0
10 | B10 | 64.0
11 | B11 | 76.8
12 | B12 | 84.3

same assay, conditions: 0.1% DMSO; U251 cells; flow cytometry 24 h after transfection; damaged/undamaged reporter; inversely related to MGMT activity

Row | Molecule | Reporter expression (%) mean, DMSO [%]
13 | B1 | 17.8
14 | B2 | 109.7
15 | B3 | 42.8
16 | B4 | 103.5
17 | B5 | 52.3
18 | B6 | 27.3
19 | B7 | 20.0
20 | B8 | 108.0
21 | B9 | 94.0
22 | B10 | 16.3
23 | B11 | 25.3
24 | B12 | 13.3

same assay, conditions: DMSO condition; determined from percent reporter expression

Row | Molecule | MGMT activity (a.u.) DMSO [a.u.]
25 | B1 | 5.63
26 | B2 | 0.91
27 | B3 | 2.34
28 | B4 | 0.97
29 | B5 | 1.91
30 | B6 | 3.66
31 | B7 | 5.00
32 | B8 | 0.93
33 | B9 | 1.06
34 | B10 | 6.12
35 | B11 | 3.96
36 | B12 | 7.50

same assay, conditions: DMSO condition; relative to wild-type MGMT in same condition

Row | Molecule | MGMT activity (% of WT) DMSO
37 | B1 | 104.2 % of WT
38 | B2 | 16.9 % of WT
39 | B3 | 43.3 % of WT
40 | B4 | 17.9 % of WT
41 | B5 | 35.4 % of WT
42 | B6 | 67.7 % of WT
43 | B7 | 92.5 % of WT
44 | B8 | 17.1 % of WT
45 | B9 | 19.7 % of WT
46 | B10 | 113.3 % of WT
47 | B11 | 73.3 % of WT
48 | B12 | 138.8 % of WT

same assay, conditions: MGMT activity (a.u.) in O^6BG divided by DMSO x 100; higher values indicate resistance

Row | Molecule | Relative MGMT activity (%)
49 | B1 | 26.9
50 | B2 | 105.1
51 | B3 | 51.8
52 | B4 | 92.1
53 | B5 | 64.9
54 | B6 | 26.9
55 | B7 | 18.9
56 | B8 | 101.6
57 | B9 | 101.1
58 | B10 | 25.5
59 | B11 | 32.9
60 | B12 | 15.8

same assay, conditions: O^6BG condition; determined from percent reporter expression

Row | Molecule | MGMT activity (a.u.) O^6BG [a.u.]
61 | B1 | 1.52
62 | B2 | 0.96
63 | B3 | 1.21
64 | B4 | 0.89
65 | B5 | 1.24
66 | B6 | 0.98
67 | B7 | 0.94
68 | B8 | 0.94
69 | B9 | 1.08
70 | B10 | 1.56
71 | B11 | 1.30
72 | B12 | 1.19

same assay, conditions: O^6BG condition; relative to wild-type MGMT in same condition

Row | Molecule | MGMT activity (% of WT) O^6BG
73 | B1 | 106.1 % of WT
74 | B2 | 67.1 % of WT
75 | B3 | 84.8 % of WT
76 | B4 | 62.3 % of WT
77 | B5 | 86.8 % of WT
78 | B6 | 68.9 % of WT
79 | B7 | 66.0 % of WT
80 | B8 | 65.8 % of WT
81 | B9 | 75.3 % of WT
82 | B10 | 109.4 % of WT
83 | B11 | 91.2 % of WT
84 | B12 | 83.0 % of WT

same assay, conditions: lower values indicate resistance to O^6BG

Row | Molecule | Ratio percent reporter expression (O^6BG/DMSO)
85 | B1 | 3.72
86 | B2 | 0.95
87 | B3 | 1.93
88 | B4 | 1.09
89 | B5 | 1.54
90 | B6 | 3.72
91 | B7 | 5.30
92 | B8 | 0.98
93 | B9 | 0.99
94 | B10 | 3.92
95 | B11 | 3.04
96 | B12 | 6.33

same assay, conditions: percentage difference in relative MGMT activity between variant and wild-type MGMT

Row | Molecule | O^6BG resistance relative to WT (%)
97 | B1 | 1.8
98 | B2 | 297.7
99 | B3 | 96.1
100 | B4 | 248.6
101 | B5 | 145.5
102 | B6 | 1.7
103 | B7 | −28.6
104 | B8 | 284.3
105 | B9 | 282.4
106 | B10 | −3.4
107 | B11 | 24.5
108 | B12 | −40.2
